Test results from publication PMC5435868, “Crystal structure of U2 snRNP SF3b components: Hsh49p in complex with Cus1p-binding domain” (RNA, 2017).

How the values were obtained:
[1] = molecular target: T1, Hsh49p (Saccharomyces cerevisiae) (UniProt Q99181); experiment: fluorescence anisotropy; conditions: 20 mM K-Hepes pH 7.5, 125 mM KCl, 1 mM EDTA, 5 mM DTT, 0.01% Igepal, E. coli tRNA (100 ng FA, 500 ng EMSA), 22°C 20 min; EMSA gels at 4°C
T1 sequence: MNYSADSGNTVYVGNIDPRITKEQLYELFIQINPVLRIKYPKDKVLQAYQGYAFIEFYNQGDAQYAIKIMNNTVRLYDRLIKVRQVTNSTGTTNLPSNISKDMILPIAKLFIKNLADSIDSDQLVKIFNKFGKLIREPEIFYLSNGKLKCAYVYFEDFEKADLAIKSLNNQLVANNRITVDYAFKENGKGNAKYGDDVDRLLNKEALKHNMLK

Hsh49p;Cus1(290-368)p [2] = molecular target: T2, Hsh49p;Cus1(290-368)p (Saccharomyces cerevisiae;Saccharomyces …, UniProt Q99181;Q02554 1-213;290-368, |); experiment: fluorescence anisotropy; similar to RRM1-Cus1(290-368)p; 20 mM K-Hepes pH 7.5, 125 mM KCl, 1 mM EDTA, 5 mM DTT, 0.01% Igepal, E. coli tRNA (100 ng FA, 500 ng EMSA), 22°C 20 min; EMSA gels at 4°C; conditions: protein: recombinant;recombinant; tags: His-TEV tag (cleaved);none stated; coexpressed; copies: 1;1; label: 3' fluorescein; hairpin with 5' single strand
T2 sequence 1: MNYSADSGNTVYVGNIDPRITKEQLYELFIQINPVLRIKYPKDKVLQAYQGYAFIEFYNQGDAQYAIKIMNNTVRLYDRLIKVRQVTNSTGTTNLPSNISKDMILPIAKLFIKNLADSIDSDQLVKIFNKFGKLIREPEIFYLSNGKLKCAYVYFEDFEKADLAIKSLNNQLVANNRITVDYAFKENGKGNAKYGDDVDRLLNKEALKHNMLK
T2 sequence 2: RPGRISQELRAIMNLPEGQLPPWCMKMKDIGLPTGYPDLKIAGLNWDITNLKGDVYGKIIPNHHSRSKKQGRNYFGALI

[3] = molecular target: T3, Hsh49p Tyr152Ala-Tyr154Ala (RRM2 mutant);Cus1(290-350)p (Saccharomyces cerevisiae;Saccharomyces …, UniProt Q99181;Q02554 1-213;290-350, Y152A;Y154A|); experiment: fluorescence anisotropy; mutation has no effect; 20 mM K-Hepes pH 7.5, 125 mM KCl, 1 mM EDTA, 5 mM DTT, 0.01% Igepal, E. coli tRNA (100 ng FA, 500 ng EMSA), 22°C 20 min; EMSA gels at 4°C; conditions: protein: recombinant;recombinant; tags: His-TEV tag (cleaved);none stated; coexpressed; copies: 1;1; label: 3' fluorescein; hairpin with 5' single strand
T3 sequence 1: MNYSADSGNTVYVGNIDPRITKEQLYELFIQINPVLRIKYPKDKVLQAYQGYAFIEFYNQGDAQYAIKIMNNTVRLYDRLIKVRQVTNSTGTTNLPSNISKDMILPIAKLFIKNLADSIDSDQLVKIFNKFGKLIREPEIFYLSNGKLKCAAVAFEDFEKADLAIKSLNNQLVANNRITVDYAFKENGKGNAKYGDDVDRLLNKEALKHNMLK
T3 sequence 2: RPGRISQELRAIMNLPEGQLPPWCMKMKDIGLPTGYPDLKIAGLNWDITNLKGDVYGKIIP

[4] = molecular target: T4, Hsh49p Tyr52Ala-Phe54Ala (RRM1 mutant);Cus1(290-350)p (Saccharomyces cerevisiae;Saccharomyces …, UniProt Q99181;Q02554 1-213;290-350, Y52A;F54A|); experiment: fluorescence anisotropy; 20 mM K-Hepes pH 7.5, 125 mM KCl, 1 mM EDTA, 5 mM DTT, 0.01% Igepal, E. coli tRNA (100 ng FA, 500 ng EMSA), 22°C 20 min; EMSA gels at 4°C; conditions: protein: recombinant;recombinant; tags: His-TEV tag (cleaved);none stated; coexpressed; copies: 1;1; label: 3' fluorescein; hairpin with 5' single strand
T4 sequence 1: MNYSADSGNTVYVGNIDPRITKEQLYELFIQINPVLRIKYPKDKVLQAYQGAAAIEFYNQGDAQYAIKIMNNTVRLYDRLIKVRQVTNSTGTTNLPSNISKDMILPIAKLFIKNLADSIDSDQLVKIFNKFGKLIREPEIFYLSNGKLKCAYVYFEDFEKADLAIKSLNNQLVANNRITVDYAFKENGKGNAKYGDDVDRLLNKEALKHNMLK
T4 sequence 2: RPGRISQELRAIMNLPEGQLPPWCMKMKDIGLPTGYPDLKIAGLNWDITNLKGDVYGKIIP

Hsh49p = molecular target: T5, Hsh49p (Saccharomyces cerevisiae, UniProt Q99181 1-213); experiment: EMSA; up to 1.5 µM protein, E. coli tRNA; 20 mM K-Hepes pH 7.5, 125 mM KCl, 1 mM EDTA, 5 mM DTT, 0.01% Igepal, E. coli tRNA (100 ng FA, 500 ng EMSA), 22°C 20 min; EMSA gels at 4°C; conditions: protein: recombinant, tags: His-TEV tag (cleaved), label: 3' fluorescein
T5 sequence: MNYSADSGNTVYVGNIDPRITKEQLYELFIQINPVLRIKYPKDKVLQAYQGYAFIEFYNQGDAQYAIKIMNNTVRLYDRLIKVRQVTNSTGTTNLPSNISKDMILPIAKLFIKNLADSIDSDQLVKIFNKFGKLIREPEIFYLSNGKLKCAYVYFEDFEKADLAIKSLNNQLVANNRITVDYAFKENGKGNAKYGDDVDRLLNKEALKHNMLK

Hsh49p;Cus1(290-368)p [5] = molecular target: T2, Hsh49p;Cus1(290-368)p; experiment: as above; conditions: protein: recombinant;recombinant, tags: His-TEV tag (cleaved);none stated, coexpressed, copies: 1;1, label: 3' fluorescein
Hsh49p RRM2 = molecular target: T6, Hsh49p RRM2 (Saccharomyces cerevisiae, UniProt Q99181 108-185); experiment: fluorescence anisotropy; 20 mM K-Hepes pH 7.5, 125 mM KCl, 1 mM EDTA, 5 mM DTT, 0.01% Igepal, E. coli tRNA (100 ng FA, 500 ng EMSA), 22°C 20 min; EMSA gels at 4°C; conditions: protein: recombinant; tags: His-TEV tag (cleaved); label: 3' fluorescein; hairpin
T6 sequence: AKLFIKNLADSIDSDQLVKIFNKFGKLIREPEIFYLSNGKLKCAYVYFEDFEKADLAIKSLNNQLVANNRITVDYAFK

Hsh49p;Cus1(290-368)p [6] = molecular target: T2, Hsh49p;Cus1(290-368)p; experiment: as above; conditions: protein: recombinant;recombinant; tags: His-TEV tag (cleaved);none stated; coexpressed; copies: 1;1; label: 3' fluorescein; hairpin with single-stranded flanks
Hsh49p;Cus1(290-368)p [7] = molecular target: T2, Hsh49p;Cus1(290-368)p; experiment: fluorescence anisotropy; pseudouridines have no large effect; 20 mM K-Hepes pH 7.5, 125 mM KCl, 1 mM EDTA, 5 mM DTT, 0.01% Igepal, E. coli tRNA (100 ng FA, 500 ng EMSA), 22°C 20 min; EMSA gels at 4°C; conditions: protein: recombinant;recombinant; tags: His-TEV tag (cleaved);none stated; coexpressed; copies: 1;1; label: 3' fluorescein; hairpin with single-stranded flanks
HisHsh49p = molecular target: T7, HisHsh49p (S. cerevisiae, UniProt Q99181 1-213); experiment: pull-down; purified HisHsh49p–Cus1 complex (40 µM) cut with trypsin (10 µg/mL, 10 min, 22°C), His-tagged Hsh49p held on Ni-NTA resin; fragments told by N-terminal sequencing and MALDI-TOF; conditions: both partners purified
T7 construct: Hsh49p, S. cerevisiae; Held on Ni-NTA resin by its His tag after the trypsin digest; also called His-tagged Hsh49p; source: E. coli, coexpressed with Cus1(121-392)p, purified as complex; not shown: His6, N-terminal, kept
T7 sequence (looked up): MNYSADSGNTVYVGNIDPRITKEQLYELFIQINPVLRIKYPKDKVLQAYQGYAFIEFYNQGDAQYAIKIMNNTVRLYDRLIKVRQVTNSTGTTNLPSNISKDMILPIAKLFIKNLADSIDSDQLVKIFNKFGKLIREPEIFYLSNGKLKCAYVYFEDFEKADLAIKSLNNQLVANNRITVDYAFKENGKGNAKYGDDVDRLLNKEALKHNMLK

Molecule: ACGAAUCUCUUUGCCUUUUGGCUUAGAUCAAGUGUAGUAUCUGUUCU [5'SLIBPRS]
- binding signal (fold weaker than Hsh49p-Cus1(290-368)p) [1]: 10

Molecule: ACGAAUCUCUUUGCCUUUUGGCUUAGA (structured_RNA) [5'SLI]
- binding result (Hsh49p;Cus1(290-368)p [2]): binds
- binding result [3]: binds
- binding signal [4]: ~10 fold lower affinity than wild type
- binding result (Hsh49p; hairpin with 5' single strand): no binding

Molecule: UCUUUGCCUUUUGGCUUAGA (structured_RNA) [SLI]
- binding result (Hsh49p;Cus1(290-368)p [5]; hairpin): no binding
- binding result (Hsh49p; hairpin): no binding

Molecule: UUUCAGUGUAACAACUGAAA (structured_RNA) [SLIIa]
- binding result (Hsh49p RRM2): no binding
- binding result (Hsh49p;Cus1(290-368)p [5]; hairpin): no binding
- binding result (Hsh49p; hairpin): no binding

Molecule: ACGAAUCUCUUUGCCUUUUGGCUUAGAUCAAGUGUAGUAUCUGUUCU (structured_RNA) [5'SLIBPRS]
- binding signal (Hsh49p;Cus1(290-368)p [6]): ~10 fold stronger than Hsh49p alone

Molecule: ACGAAUCUCUUUGCCUUUUGGCUUAGAUCAAGUGUAGUAUCUGUUCU (structured_RNA, pseudouridines around the BPRS (positions in figure)) [5'SLIBPRS-pseu]
- binding result (Hsh49p;Cus1(290-368)p [7]): binds

B1: Cus1p fragment comprising residues 285-355 (domain or fragment, S. cerevisiae, UniProt Q02554 285-355, looked up)
chain: MVDHKRPGRISQELRAIMNLPEGQLPPWCMKMKDIGLPTGYPDLKIAGLNWDITNLKGDVYGKIIPNHHSR
notes: also called digested Cus1p fragment; source: trypsin digest of the purified HisHsh49p-Cus1 complex made in E. coli
- binding result (HisHsh49p): binds

Molecule: UGACCUCAAUGAGGCUCA (structured_RNA) [SLIIb]
- binding result (Hsh49p RRM2): no binding
- binding result (Hsh49p;Cus1(290-368)p [5]; hairpin): no binding
- binding result (Hsh49p; hairpin): no binding

Molecule: UCAAGUGUAGUAUCUGUUCU (ssRNA) [BPRS]
- binding result (Hsh49p;Cus1(290-368)p [5]): no binding
- binding result (Hsh49p): no binding
